Target: T1, 5C.C7 TCR (as measured by surface plasmon resonance) (mouse)
T1 construct: Kept apart from the TCR on cells because the SPR construct is not described
Assay: SPR

B1: MCC-I-Ek (peptide-MHC)
chain 1: ANERADLIAYLKQATK
chain 2: IKEEHTIIQAEFYLLPDKRGEFMFDFDGDEIFHVDIEKSETIWRLEEFAKFASFEAQGALANIAVDKANLDVMKERSNNTPDANVAPEVTVLSRSPVNLGEPNILICFIDKFSPPVVNVTWLRNGRPVTEGVSETVFLPRDDHLFRKFHYLTFLPSTDDFYDCEVDHWGLEEPLRKHWEFEEKTLLPETKE
chain 3: VRDSRPWFLEYCKSECHFYNGTQRVRLLVRYFYNLEENLRFDSDVGEFRAVTELGRPDAENWNSQPEFLEQKRAEVDTVCRHNYEIFDNFLVPRRVEPTVTVYPTKTQPLEHHNLLVCSVSDFYPGNIEVRWFRNGKEEKTGIVSTGLVRNGDWTFQTLVMLETVPQSGEVYTCQVEHPSLTDPVTVEWKAQSTSAQNK
What does the source list for B1?
Kd: 22.9 µM; t1/2: 5.77 s

Source: US20140120557A1 (published 2014)
